Biological target: T1, IFN-γR1 (ligand-binding chain of the interferon-gamma receptor), fused to a fluorescent protein (UniProt P15260 18-489)
T1 sequence (looked up): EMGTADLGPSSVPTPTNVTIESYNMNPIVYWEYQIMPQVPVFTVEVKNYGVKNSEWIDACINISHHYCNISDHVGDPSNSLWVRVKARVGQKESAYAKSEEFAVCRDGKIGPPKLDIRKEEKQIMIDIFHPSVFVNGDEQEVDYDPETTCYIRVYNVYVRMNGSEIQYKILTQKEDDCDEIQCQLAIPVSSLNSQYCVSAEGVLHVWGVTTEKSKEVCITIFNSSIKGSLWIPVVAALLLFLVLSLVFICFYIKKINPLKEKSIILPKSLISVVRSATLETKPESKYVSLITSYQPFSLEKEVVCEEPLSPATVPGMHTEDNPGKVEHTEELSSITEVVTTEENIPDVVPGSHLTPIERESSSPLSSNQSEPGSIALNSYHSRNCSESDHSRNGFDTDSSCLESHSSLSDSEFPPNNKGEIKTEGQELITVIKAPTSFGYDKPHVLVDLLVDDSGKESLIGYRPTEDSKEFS
Experiment: FRET or BRET

B1: IFN-γR2 (accessory chain of the interferon-gamma receptor), fused to a fluorescent protein (receptor, UniProt P38484 22-337, looked up)
chain: APPDPLSQLPAPQHPKIRLYNAEQVLSWEPVALSNSTRPVVYQVQFKYTDSKWFTADIMSIGVNCTQITATECDFTAASPSAGFPMDFNVTLRLRAELGALHSAWVTMPWFQHYRNVTVGPPENIEVTPGEGSLIIRFSSPFDIADTSTAFFCYYVHYWEKGGIQQVKGPFRSNSISLDNLKPSRVYCLQVQAQLLWNKSNIFRVGHLSNISCYETMADASTELQQVILISVGTFSLLSVLAGACFFLVLKYRGLIKYWFHTPPSIPLQIEEYLKDPTQPILEALDKDSSPKDDVWDSVSIISFPEKEQEDVLQTL
fold higher apparent affinity than IFN-γR1 with DAF-ToFP: ~7 fold
